The target of one test is T1, human Kv1.3 (Homo sapiens, UniProt P22001).
T1 construct: cell lines stably expressing the full length human Kv1.3 channel
Description: IonWorks Quattro automated perforated patch clamp, Kv1.3-expressing CHL cells. The settings on record: 6 to 7 min incubation. It counts as cell-based. An excerpt: Selected Nanobodies were electrophysiologically characterized on human Kv1.3 on the IonWorks automated perforated-Patch Clamp using Kv1.3-expressing Chinese Hamster Lung (CHL) cells. The procedure for evaluating the modulatory effect of the purified Nanobodies on human Kv1.3 via electrophysiological recordings is given below.
IonWorks Quattro (Molecular Devices) is a second-generation screening instrument that provides membrane voltage control and provides a direct electrophysiological assay for screening and characterization of compounds. It is an automated, high-throughput planar perforated patch clamp that uses a 384-well PatchPlate™ substrate.
Extracellular solution contained (in mM): 138 NaCl, 2.7 KCl, 0.9 CaCl2, 0.5 MgCl2, 8 Na2HPO4, and 1.5 KH2PO4 (pH 7.3 with NaOH, and 285-290 mOsmolar). The intracellular solution contained (in mM): 100 K-gluconate, 40 KCl, 3.2 EGTA, 5 HEPES and 3.2 MgCl2 (pH 7.3 with KOH, and 300-315 mOsmolar). These solutions were freshly made, stocked for no longer than a month at 4° C. and filtered prior to use. The selected Nanobodies were directly diluted in extracellular solution to obtain a 3 μM sample solution. […]
The basic principles of IonWorks automated patch clamp electrophysiology are described by Schroeder et al. (J Biomol Screen 8(1):50-64, 2003). […] In PPC mode, an ensemble average of the current from up to 64 cells per well was recorded. […]

Another test has as its system CCR7−CD45RA− T cells. The class given is cell-based, human. An excerpt:
The purified anti-Kv1.3 Nanobodies were characterized in a T Cell-activation assay. Human T Cells were first collected from Buffy Coat blood (from healthy volunteers, Bloodbank Gent) using RosetteSep (StemCell Technologies, #15061) followed by an enrichment on Ficoll-Paque™ PLUS (GE Healthcare #17-1440-03). CCR7−CD45RA− T cells were isolated through negative selection using biotinylated antibodies against CD45RA (BD Bioscience #624008) and CCR7 (BD Bioscence #624009) in addition to the Dynabeads Biotin Binder (Invitrogen #110.47). The purity of the population was afterwards checked with anti-CD3 (eBioscience #12-0037-73); anti-CD8 (BD Bioscience #345775); anti-CD4 (BD Bioscience #345771); anti-CD45RO (BD Bioscience #555493); anti-CD45RA (BD Bioscience #550855); anti-rat IgG (Jackson ImmunoResearch Laboratories #112-116-143); anti-CD19 (BD Bioscience #555413) and anti-Human CCR7 (R&D Systems #MAB197) labeled antibodies in flow cytometric assay.
Isolated CCR7^−CD45RA^− T Cells were then stimulated on anti-CD3 (eBioscience 16-0037-85; 540 ng/ml) coated 96-well plates at a concentration of 200 000 cells/well in absence or presence of dilution series of anti-Kv1.3 antibodies and ShK positive control (Smartox, #08SHK001). After 72 h, IFN-gamma production was measured with anti-human IFNγ antibody capture in ELISA (BD Bioscence #551221) combined with biotinylated anti-human IFNγ (BD Bioscience, #554550) and streptavidin-HRP (Dakocytomation #P0397) as detection (FIG. 11A-11B).
In addition, also CD25 expression was measured in flow cytometry, using an anti-CD25 antibody (BD Pharmingen, cat 557138) (FIG. 11C-11D). […]

T1 sequence (P22001 whole entry): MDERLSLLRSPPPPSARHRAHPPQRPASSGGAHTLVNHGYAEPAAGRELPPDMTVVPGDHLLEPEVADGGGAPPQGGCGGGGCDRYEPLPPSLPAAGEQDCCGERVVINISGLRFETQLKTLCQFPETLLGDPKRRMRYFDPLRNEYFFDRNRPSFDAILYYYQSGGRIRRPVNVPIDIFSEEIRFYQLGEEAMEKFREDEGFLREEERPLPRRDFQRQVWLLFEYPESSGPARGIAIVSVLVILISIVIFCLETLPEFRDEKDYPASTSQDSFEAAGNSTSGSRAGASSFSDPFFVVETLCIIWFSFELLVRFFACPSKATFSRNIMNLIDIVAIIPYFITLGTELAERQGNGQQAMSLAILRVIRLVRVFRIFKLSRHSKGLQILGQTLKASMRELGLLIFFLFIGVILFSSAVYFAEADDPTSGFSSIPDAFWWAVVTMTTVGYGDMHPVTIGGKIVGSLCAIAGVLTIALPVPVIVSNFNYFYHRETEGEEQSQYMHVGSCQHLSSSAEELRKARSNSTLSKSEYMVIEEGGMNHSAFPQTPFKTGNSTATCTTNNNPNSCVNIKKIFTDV

B1: A019400003: monovalent anti-Kv1.3 Nanobody, family 1 (protein)
VHH: EVQLVESGGGLVQAGGSLSLSCTASGGTFRNFGMGWFRQAQGKEREFVAAISRTGGHTYYQDSVKGRFTISKDNAKNILSLQMNSLKPEDTAVYYCAARFRFGDGTYYYQRAFYDFWGQGTQVTVSS
modifications: Nanobody sequence
B1: the “effect on Kv1.3 current traces on IonWorks, in words” value with human Kv1.3 is listed as “biphasic modulatory effect”. Besides, in the test with CCR7−CD45RA− T cells (anti-CD3 stimulation), the “inhibition of T-cell stimulation (IFNγ, CD25), in words” value is listed as “did not block”. The “IC50 (in M) CD25 read out” value with CCR7−CD45RA− T cells (monovalent Nanobodies, plate bound anti-CD3) is recorded as “no effect”. In addition, the “IC50 (in M) IFNγ read out” value in the test on CCR7−CD45RA− T cells (monovalent Nanobodies, plate bound anti-CD3, 72 h) is “no effect”.

(Values after patent US11149086B2, “KV1.3 binding immunoglobulins” (Ablynx N.V., priority 2014, dated 2021).)
